Molecular target: taxol-stabilized microtubules polymerized from tubulin purified from bovine brain (bovine)
Test: co-sedimentation

stoichiometry N (tubulin heterodimers per emerin)	Binder
8	emerin peptide aa 1–176 (most of the nucleoplasmic domain) (domain or fragment) MDNYADLSDTELTTLLRRYNIPHGPVVGSTRRLYEKKIFEYETQRRRLSPPSSSAASSYSFSDLNSTRGDADMYDLPKKEDALLYQSKGYNDDYYEESYFTTRTYGEPESAGPSRAVRQSVTSFPDADAFHHQVHDDDLLSSSEEECKDRERPMYGRDSAYQSITHYRPVSASRSS
24	His-tagged recombinant emerin peptide corresponding to aa 73–180 (domain or fragment) MYDLPKKEDALLYQSKGYNDDYYEESYFTTRTYGEPESAGPSRAVRQSVTSFPDADAFHHQVHDDDLLSSSEEECKDRERPMYGRDSAYQSITHYRPVSASRSSLDLS

— article PMC2064615
